Measured values published in publication PMC5541836.

Target: Wild-type spindle pole bodies (SPBs) purified from budding yeast (strain BGY72-8A: Spc97-TAP, Spc42-mCherry) (budding yeast) (UniProt P38863)
Assay: laser trap rupture force

Sequence of Microtubules assembled from bovine brain tubulin (Q6B856 whole entry, looked up): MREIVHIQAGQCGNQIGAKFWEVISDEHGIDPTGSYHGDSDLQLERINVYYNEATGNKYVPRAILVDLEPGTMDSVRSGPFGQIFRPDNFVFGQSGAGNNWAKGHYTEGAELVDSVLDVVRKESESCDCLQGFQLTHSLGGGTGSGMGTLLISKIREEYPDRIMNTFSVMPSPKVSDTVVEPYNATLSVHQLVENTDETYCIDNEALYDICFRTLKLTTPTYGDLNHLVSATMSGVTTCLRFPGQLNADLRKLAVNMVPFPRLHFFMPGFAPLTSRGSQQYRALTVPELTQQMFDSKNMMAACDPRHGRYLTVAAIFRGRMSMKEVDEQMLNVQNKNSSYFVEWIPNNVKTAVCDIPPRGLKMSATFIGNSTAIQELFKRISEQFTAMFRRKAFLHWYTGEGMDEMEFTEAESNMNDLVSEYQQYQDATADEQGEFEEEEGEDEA
Sequence of Wild-type spindle pole bodies (SPBs) purified from budding yeast (strain BGY72-8A: Spc97-TAP, Spc42-mCherry) (budding yeast) (P38863 whole entry, looked up): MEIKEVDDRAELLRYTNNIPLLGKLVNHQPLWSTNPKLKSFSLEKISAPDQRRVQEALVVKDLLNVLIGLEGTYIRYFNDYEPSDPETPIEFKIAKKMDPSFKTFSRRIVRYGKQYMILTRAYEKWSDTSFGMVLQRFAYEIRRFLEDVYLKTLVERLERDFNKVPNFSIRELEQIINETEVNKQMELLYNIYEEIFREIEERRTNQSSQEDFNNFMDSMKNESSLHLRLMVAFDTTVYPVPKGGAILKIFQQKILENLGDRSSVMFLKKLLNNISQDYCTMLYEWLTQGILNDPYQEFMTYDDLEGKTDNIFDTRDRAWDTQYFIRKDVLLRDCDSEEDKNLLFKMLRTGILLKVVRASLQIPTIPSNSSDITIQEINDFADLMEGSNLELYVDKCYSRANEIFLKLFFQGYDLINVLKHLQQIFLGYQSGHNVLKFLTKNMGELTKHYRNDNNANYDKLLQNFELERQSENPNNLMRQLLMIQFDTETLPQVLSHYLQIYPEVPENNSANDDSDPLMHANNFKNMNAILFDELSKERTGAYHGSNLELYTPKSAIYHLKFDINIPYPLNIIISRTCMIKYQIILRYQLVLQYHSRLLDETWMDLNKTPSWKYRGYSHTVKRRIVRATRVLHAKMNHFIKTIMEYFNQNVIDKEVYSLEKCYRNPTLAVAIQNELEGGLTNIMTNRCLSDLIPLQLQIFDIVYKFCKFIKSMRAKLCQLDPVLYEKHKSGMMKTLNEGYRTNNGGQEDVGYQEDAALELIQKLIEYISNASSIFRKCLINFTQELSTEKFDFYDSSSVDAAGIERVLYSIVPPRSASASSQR

Microtubules assembled from bovine brain tubulin (from UniProt Q6B856 1-445) (complex)
raw mean rupture force: 45 pN
